Experimental data: patent US20190330277A1

Assays:
[1] = biological target: bRSV RB94 DSCav1 (bovine respiratory syncytial virus, strain RB94) (UniProt P23728); assay: biolayer interferometry (Octet), variant on Ni-NTA tip, Fab in solution
[2] = biological target: 391-2-DS-Cav1-sc9deleteFS 98C-362C; assay: ELISA, variant from culture supernatant on Ni-NTA plate
[3] = biological target: 391-2-DS-Cav1-sc9 99C-362C; assay: as above
[4] = biological target: 391-2-DS-Cav1_ sc9_I28C-G464C; assay: as above
[5] = biological target: RB94 sc9 DS-CAV1 N183GC-N428C L373R Long K226L; assay: as above
[6] = biological target: RB94 sc9 DS-CAV1 N183GC-N428C L373R Long; assay: as above
[7] = biological target: 391-2-DS-Cav1-sc9 99C-361C; assay: as above
[8] = biological target: 391-2 sc9 DS-Cav1 98C-362C; assay: as above
[9] = biological target: RB94 sc9 DS-CAV1 N183GC-N428C L373R; assay: as above
[10] = biological target: 391-2-DS-Cav1-sc9 100C-362C; assay: as above
[11] = biological target: bRSV RB94 DSCav1 (bovine respiratory syncytial virus, strain RB94) (UniProt P23728)
[12] = biological target: 391-2-DS-Cav1-BZGJ9deleteFS; assay: ELISA, variant from culture supernatant on Ni-NTA plate [continued]
[13] = biological target: bRSV RB94 DSCav1 (bovine respiratory syncytial virus, strain RB94) (UniProt P23728); assay: biolayer interferometry Octet binding analysis

MPE8 antibody, sequence (VH): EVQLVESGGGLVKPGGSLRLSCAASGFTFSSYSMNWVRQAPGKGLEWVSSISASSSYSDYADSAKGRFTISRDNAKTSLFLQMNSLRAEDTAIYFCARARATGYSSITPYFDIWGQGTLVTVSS
MPE8 antibody, sequence (VL): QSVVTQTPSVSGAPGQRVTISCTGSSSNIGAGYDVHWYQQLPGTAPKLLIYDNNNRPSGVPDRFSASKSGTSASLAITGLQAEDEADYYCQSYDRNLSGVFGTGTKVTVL

With MPE8 Fab the Kd [1] was 200 pM.
For MPE8 antibody, the ELISA binding value [2] was 0.448, the ELISA binding value [3] was 0.311 and the ELISA binding value [4] was 0.203. It also gave an ELISA binding value [5] of 0.293, an ELISA binding value [6] of 0.335 and an ELISA binding value [7] of 0.198. It also gave an ELISA binding value [8] of 0.48, an ELISA binding value [9] of 0.322 and an ELISA binding value [10] of 0.131. For the same substance, the ELISA binding value [11] was 0.199, the ELISA binding value [12] was 0.0675 and the response level (biolayer interferometry) [13] was 0.5 nm.
AM14 Fab gave a Kd [1] of 4900 pM.
For motavizumab Fab, the Kd [1] was 900 pM.
